B1: 3A07 (antibody, human IgG4, V domains shown)
VH: QVQLQQSGAELVRPGAPVTLSCKASDYTFTDSEIHWVKQTPVHGLEWIGEIDPETGGTAYNQKFKGKATLTADKSSSTAYMELRSLTSEDSAVYYCSRETDYFFDYWGQGTTLTVSS
VL: ENVLTQSPAIMSASPGEKVTMTCSASSSVSYMYWYQQRPGSSPRLLIYDTSNLASGVPVRFSGSGSGTSYSLTISRMEAEDAATYYCQQWSSYPLTFGSGTKLEIK
notes: chimeric human IgG4 (S-to-P, L-to-E at 248), human CL; also called Parental 3A07
B2: 3B04 (antibody, human IgG4, V domains shown)
VH: QVQLQQPGAELVRPGASVTLSCKASGYTFTDYEMHWVKQTPVHGLEWIGEIDPETGDTAYSQKFKGKATLTADKSSSTAYMEFRSLTSEDSAVYYCSRETDYFFDYWGQGTTLTVSS
VL: DIQMTQTPASLSASVGETVTITCGASENIYGALNWYQRKQGKSPQLLIYGATNLADGMSSRFSGSGSGRQYSLKISSLHPDDFATYYCQNVLTTPWTFGGGTKLEIKR
notes: chimeric: mouse variable domains on human IgG4 HC (S-to-P and L-to-E at 248) and human CL; also called Parental 3B04; 3B04 chimeric
B3: 3D12 (antibody, human IgG4, V domains shown)
VH: QVQLQQPGAELVRPGASVTLSCKASDYTFTDSEIHWVKQTPVHGLEWIGEIDPETGGTAYNQKFKGKATLTADKSSSTAYMELRSLTSEDSAVYYCSRETDYFFDYWGQGTTLTVSS
VL: DIQMTQSPASLSASVGETVTITCGASENIYGALNWYQRKQGKSPQLLIYGATNLADGMSSRFSGSGSGRQYSLKISSLHPDDVATYYCQNVLSTPWTFGGGTKLEIKR
notes: chimeric: mouse variable domains on human IgG4 HC (S-to-P and L-to-E at 248) and human CL; also called Parental 3D12; 3D12 chimeric
B4: 3C10 (antibody, human IgG4, V domains shown)
VH: EVQLQQSGAELVRPGASVTLSCKASDYTFTDSEIHWVKQTPVHGLEWIGEIDPETGGTAYNQKFKGKATLTADKSSSTAYMELRSLTSEDSAVYYCSRETDYFFDYWGQGTTLTVSS
VL: DVVMTQTPAIMSASPGEKVTMTCSASSSVSYMYWYQQKPGSSPRLLIYDTSNLASGVPVRFSGSGSGTSYSLTISRMEAEDAATYYCQQWSSYPLTFGAGTKLELK
notes: chimeric human IgG4 (S-to-P, L-to-E at 248), human CL; also called Parental 3C10
B5: 2E08 (antibody, human IgG4, V domains shown)
VH: QVQMKESGAELVRPGVSVKISCKGSGYTFTDYAIHWVKQSHAKTLEWIGVISTYYGDASYNQKFKGKATMTVDKSSSTAYMELARLTSDDSAIYYCARSRGEYGNYDAMDYWGQGTSVTVSS
VL: DIVLTQSPASLAVSLGQRATISCKASQSVDYDGDSYMNWYQQKPGQPPKLLIYAASNLESGIPARFSGSGSGTDFTLNIHPVEEEDAATYYCQQSNEDPLTFGAGTKLELK
notes: chimeric human IgG4 (S-to-P, L-to-E at 248), human CL; also called Parental 2E08
B6: 2B11 (antibody, human IgG4, V domains shown)
VH: EVQLVESGAELVRPGVSVKISCKGSGYTFTDYAIHWVKQSHAKSLEWIGVISTYYGDASYNQKFKGKATMTVDKSSSTAYMELARLTSEDSAIYYCARSRGEYGNYDAMDYWGQGTSVTVSS
VL: DIVLTQSPASLAVSLGQRATISCRASESVDSYGNSFMHWYQQKPGQPPKLLIYRASNLESGIPARFSGSGSRTDFTLTINPVEADDVATYYCQQSNEDPYTFGGGTKLEIK
notes: chimeric human IgG4 (S-to-P, L-to-E at 248), human CL; also called Parental 2B11
B7: 3E09 (antibody, V domains shown)
VH: EVQLVESGGGLVKPGGSLKLSCEASGFTFSDYYMYWVRQTPEKRLEWVAAIGDGGIYTYYADTVKGRFTISRDNAKNILYLQMSSLKSNDTAMYYCARGTGDGFAYWGQGTLVTVS
VL: DIVLTQSPASLAVSLGQRATISCRASESVDSYGNSFMHWYQQKPGQPPKLLIYLASNLESGVPARFSGSGSRTDFTLTIDPVEADDAATYYCQQNNEDPYTFGGGTKLEIK
notes: chimeric human IgG4 (S-to-P, L-to-E at 248), human CL; also called Parental 3E09

What was measured:
Test in all cases: flow cytometry, transfected HEK293FF, mAb at EC50
membrane LIGHT W198A = molecular target: T1, membrane LIGHT W198A (human, UniProt O43557 1-240)
T1 chain: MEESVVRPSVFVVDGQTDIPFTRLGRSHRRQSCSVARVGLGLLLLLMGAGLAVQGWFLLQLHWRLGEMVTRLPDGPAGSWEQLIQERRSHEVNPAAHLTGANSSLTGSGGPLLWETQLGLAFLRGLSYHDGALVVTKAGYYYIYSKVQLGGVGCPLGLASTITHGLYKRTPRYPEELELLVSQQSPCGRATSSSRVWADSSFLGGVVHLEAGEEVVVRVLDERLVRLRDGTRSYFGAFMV
Protocol: (§1) The day of transfection the cells were seeded in a 24-well plate at 0.6×10⁶ cells/well. Lipofectamine 2000 (ThermoFisher scientific), 3 μl, was mixed with 50 μl OptiMEM medium (GIBCO) and then added to 50 μl Opti-MEM medium containing 3 ug plasmid DNA and incubated for 20 min at RT to form DNA-Lipofectamine 2000 complexes which were then added to the HEK293FF cells and incubated at 37° C., 5% CO₂ for 24 hours. For each construct, in duplicate, 0.60×10⁶ cells/well were used in a 96 well round bottom plate. Cells were centrifuged for 3 minutes at 300×g at 4° C., the supernatant discarded and the cells washed with 150 μl FACS buffer (0.5% FBS in phosphate buffered saline). This process was repeated 3 times. […] The wells were washed 3 times as above and 50 μl/well of goat anti-human IgG FITC (1:1500 dilution in FACS buffer, SIGMA F9512-2ML) or goat anti-mouse APC (1/500 dilution in FACS buffer, BDBioscience 550826), as appropriate, was added to the wells and incubated for 30 min at 4° C. protected from the light, with shaking. The cells were then washed as above, resuspended in 100 μl of FACS buffer and binding of the antibodies to the constructs was measured using flow cytometry and a total of 10,000 cells were acquired for each sample. Controls of buffer and secondary antibody only as well as HEK293FF non transfected cells were also used.

membrane LIGHT G188A = molecular target: T2, membrane LIGHT G188A (human, UniProt O43557 1-240)
T2 construct: full-length LIGHT with the substitution on HEK293FF cells
T2 chain: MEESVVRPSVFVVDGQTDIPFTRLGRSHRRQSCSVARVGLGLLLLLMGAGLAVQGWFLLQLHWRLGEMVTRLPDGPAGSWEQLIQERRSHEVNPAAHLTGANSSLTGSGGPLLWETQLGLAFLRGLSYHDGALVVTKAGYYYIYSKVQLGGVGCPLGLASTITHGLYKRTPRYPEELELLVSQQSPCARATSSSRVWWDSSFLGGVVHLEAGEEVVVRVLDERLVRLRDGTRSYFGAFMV
Protocol: as §1

membrane LIGHT W197A = molecular target: T3, membrane LIGHT W197A (human, UniProt O43557 1-240)
T3 chain: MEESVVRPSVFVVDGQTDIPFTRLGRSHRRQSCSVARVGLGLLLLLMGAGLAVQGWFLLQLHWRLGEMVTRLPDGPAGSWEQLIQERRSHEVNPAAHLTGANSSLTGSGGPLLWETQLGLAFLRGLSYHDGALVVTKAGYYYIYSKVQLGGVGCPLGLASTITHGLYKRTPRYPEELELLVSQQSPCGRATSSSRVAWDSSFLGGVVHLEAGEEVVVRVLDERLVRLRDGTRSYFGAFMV
Protocol: as §1

membrane LIGHT S194A = molecular target: T4, membrane LIGHT S194A (human, UniProt O43557 1-240)
T4 chain: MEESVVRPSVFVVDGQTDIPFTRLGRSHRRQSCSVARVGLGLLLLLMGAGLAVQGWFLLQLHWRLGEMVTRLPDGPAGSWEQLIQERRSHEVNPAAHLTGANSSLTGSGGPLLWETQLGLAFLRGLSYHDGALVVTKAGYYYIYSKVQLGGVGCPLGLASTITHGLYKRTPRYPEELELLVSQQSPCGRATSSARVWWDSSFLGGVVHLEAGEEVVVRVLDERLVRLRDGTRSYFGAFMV
Protocol: as §1

membrane LIGHT T191A = molecular target: T5, membrane LIGHT T191A (human, UniProt O43557 1-240)
T5 chain: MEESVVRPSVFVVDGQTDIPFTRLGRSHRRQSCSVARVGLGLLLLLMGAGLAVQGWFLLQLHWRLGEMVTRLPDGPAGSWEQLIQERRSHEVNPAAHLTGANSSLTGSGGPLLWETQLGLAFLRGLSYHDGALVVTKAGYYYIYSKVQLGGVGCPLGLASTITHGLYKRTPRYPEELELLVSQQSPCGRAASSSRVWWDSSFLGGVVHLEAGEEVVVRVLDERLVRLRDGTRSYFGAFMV
Protocol: as §1

membrane LIGHT R189A = molecular target: T6, membrane LIGHT R189A (human, UniProt O43557 1-240)
T6 chain: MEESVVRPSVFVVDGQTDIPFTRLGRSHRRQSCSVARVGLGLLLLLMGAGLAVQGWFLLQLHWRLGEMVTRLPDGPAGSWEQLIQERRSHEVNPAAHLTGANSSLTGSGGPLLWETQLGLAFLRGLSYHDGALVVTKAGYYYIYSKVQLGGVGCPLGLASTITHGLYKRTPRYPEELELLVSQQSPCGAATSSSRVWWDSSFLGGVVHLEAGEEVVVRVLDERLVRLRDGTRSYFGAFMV
Protocol: as §1

[1] = molecular target: T7, human LIGHT (TNFSF14), full length, membrane-bound (214E allele) (human, UniProt O43557 1-240)
T7 construct: also called membrane LIGHT; human membrane LIGHT
Protocol: as §1

membrane LIGHT A190S = molecular target: T8, membrane LIGHT A190S (human, UniProt O43557 1-240)
T8 chain: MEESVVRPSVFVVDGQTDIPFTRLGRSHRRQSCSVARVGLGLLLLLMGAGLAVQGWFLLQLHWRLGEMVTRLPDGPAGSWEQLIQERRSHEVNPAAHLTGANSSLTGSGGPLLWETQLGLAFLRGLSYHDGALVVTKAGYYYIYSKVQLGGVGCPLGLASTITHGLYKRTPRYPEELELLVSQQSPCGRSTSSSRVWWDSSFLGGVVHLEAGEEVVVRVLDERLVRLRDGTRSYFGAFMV
Protocol: as §1

| Binder | binding, % of WT (membrane LIGHT W198A) [%] | binding, % of WT (membrane LIGHT G188A) [%] | binding, % of WT (membrane LIGHT W197A) [%] | binding, % of WT (membrane LIGHT S194A) [%] | binding, % of WT (membrane LIGHT T191A) [%] | binding, % of WT (membrane LIGHT R189A) [%] | binding, % of WT [1] [%] | binding, % of WT (membrane LIGHT A190S) [%] |
| --- | --- | --- | --- | --- | --- | --- | --- | --- |
| B1 | 82 | 5 | 1 | 1 | 4 | 0 | 100 | 47 |
| B2 | 81 | 6 | 0 | 0 | 2 | 0 | 100 | 68 |
| B3 | 83 | 20 | 1 | 2 | 8 | 1 | 100 | 82 |
| B4 | 86 | 3 | 0 | 0 | 3 | 0 | 100 | 40 |
| B5 | 83 | 44 | 0 | 3 | 22 | 2 | 100 | 93 |
| B6 | 77 | 3 | 0 | 0 | 1 | 0 | 100 | 52 |
| B7 | 48 | 35 | 1 | 1 | 88 | 1 | 100 | 97 |

Source: patent US20230035798A1 (CAPELLA BIOSCIENCE, published 2023)
